According to US20220177587A1, “METHODS AND USES OF VARIANT CD80 FUSION PROTEINS AND RELATED CONSTRUCTS” (Alpine Immune Sciences, Inc., priority 2018, published 2022):

How the values were obtained:
human pan T cells = assay: Anti-CD3 coimmobilization assay, IFN-gamma; type: cell-based; conditions: Table E34; culture supernatant, 3 days
Procedure: Costimulatory bioactivity of CD80 fusion variants was determined in anti-CD3 coimmobilization assays. 1 nM or 4 nM mouse anti-human CD3 (OKT3, Biolegends, USA) was diluted in PBS with 1 nM to 80 nM rCD80.Fc variant proteins. This mixture was added to tissue culture treated flat bottom 96-well plates (Corning, USA) overnight to facilitate adherence of the stimulatory proteins to the wells of the plate. The next day, unbound protein was washed off the plates and 100,000 purified human pan T cells (BenTech Bio, US) or human T cell clone BC3 (Astarte Biologics, USA) were added to each well in a final volume of 200 μl of Ex-Vivo 15 media (Lonza, Switzerland). Cells were cultured 3 days before harvesting culture supernatants and measuring human IFN-gamma levels with Duoset ELISA kit (R&D Systems, USA) as described above.

CD28 [1] = molecular target: T1, CD28 (Homo sapiens, UniProt P10747); assay: Jurkat/IL2 + CHO/OKT3 +/- PD-L1 reporter assay: PD-L1-dependent CD28 costimulation; type: cell-based; parameters: host or cells: Jurkat cells expressing an IL-2-luciferase reporter; conditions: 5.0 nM
Method in brief: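 Jurkat reporter cells (100,000/well) preincubated 15 min at room temperature with test protein, then cocultured 5 h at 37 °C with CHO aAPCs bearing anti-CD3 scFv (OKT3) with or without PD-L1. Luciferase luminescence (RLU) read after lysis-substrate addition.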

huCTLA4 = huCTLA4 (Homo sapiens, UniProt P16410); assay: Flow binding to CHO cells stably expressing CTLA4; parameters: huCTLA4 and huPD-L1, full-length mammalian surface expression constructs were generated; expressed in transfected cells; host or cells: CHO cells, lentiviral transduction, sorted to >98% purity; conditions: for CTLA4 MFI at 33.3 nM: CHO cells stably expressing CTLA4
huCTLA4, sequence (P16410 36-223): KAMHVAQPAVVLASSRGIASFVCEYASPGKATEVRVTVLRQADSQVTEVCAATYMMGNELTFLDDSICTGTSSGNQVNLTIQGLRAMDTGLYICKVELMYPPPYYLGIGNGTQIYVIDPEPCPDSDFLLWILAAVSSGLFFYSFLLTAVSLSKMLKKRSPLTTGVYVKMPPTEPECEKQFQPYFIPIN
Method in brief: (§1)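 Fusion proteins bound to CHO cells stably expressing CTLA4 or PD-L1, or to Jurkat/IL2 reporter cells with endogenous CD28, for 45 min on ice after blocking in PBS/1% BSA. Detection with PE anti-human Fc by flow cytometry; PE MFI per cell type and binding EC50 determined.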

CD28 [2] = molecular target: T1, CD28; assay: Flow binding to Jurkat/IL2 reporter cells (CD28); parameters: host or cells: Jurkat cells expressing an IL-2-luciferase reporter
Method in brief: as §1

huPD-L1 = huPD-L1 (Homo sapiens, UniProt Q9NZQ7); assay: Flow binding to CHO cells stably expressing PD-L1; parameters: huCTLA4 and huPD-L1, full-length mammalian surface expression constructs were generated; expressed in transfected cells; host or cells: CHO cells, lentiviral transduction, sorted to >98% purity; conditions: for PD-L1 MFI at 33.3 nM: CHO cells stably expressing PD-L1; for Ratio of PDL1:CD28: ratio of MFI at 33.3 nM
huPD-L1, sequence (Q9NZQ7 19-290): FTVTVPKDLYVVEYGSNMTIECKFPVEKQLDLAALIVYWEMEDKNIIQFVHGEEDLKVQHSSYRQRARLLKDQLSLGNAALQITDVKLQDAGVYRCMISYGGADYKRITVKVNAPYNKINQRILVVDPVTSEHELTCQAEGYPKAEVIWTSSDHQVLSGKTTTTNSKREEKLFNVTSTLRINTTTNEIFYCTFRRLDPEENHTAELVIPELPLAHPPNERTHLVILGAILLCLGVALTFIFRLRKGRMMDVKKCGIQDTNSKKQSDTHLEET
Method in brief: as §1

[3] = Table E26, linker variants, Jurkat/IL2 + CHO/OKT3/PD-L1
[4] = Table E25, linker variants, 33.3 nM
[5] = Table E25, linker variants, 33.3 nM, Jurkats (CD28)
[6] = Table E24, Jurkat/IL2 + CHO/OKT3/PD-L1
[7] = Table E23, CD80 IgV-Fc (inert) at 33.3 nM
[8] = Table E23, MFI at 33.3 nM relative to CD80 WT IgV-Fc
[9] = Table E23, CD80 IgV-Fc (inert) at 33.3 nM, Jurkat (CD28)
[10] = Table E25, linker variants, relative to CD80 WT IgV-Fc

Fold Increase over WT CD80-IgV-Fe (CD28 [1]; Table E26, linker variants)	Relative Luciferase Units (RLU), CD80 Conc 5.0 nM (CD28 [1]; [3]) [RLU]	CTLA4 MFI at 33.3 nM (huCTLA4; [4])	CD28 MFI at 33.3 nM (CD28 [2]; [5])	PD-L1 MFI at 33.3 nM (huPD-L1; [4])	Ratio of PDL1:CD28 (huPD-L1; Table E25, linker variants)	Molecule	Anti-CD3 IFN-gamma Coimmobilization Assay (human pan T cells) [pg/mL]	further results
2.63	1026	3091	4678	20442	4	E35D/M47V/N48K/V68M/K89N delta (protein) VIHVTKEVKEVATLSCGHNVSVEELAQTRIYWQKDKKMVLTMMSGDVKIWPEYKNRTIFDITNNLSIMILALRPSDEGTYECVVLKYENDAFKREHLAEVTLSVKTHTCPPCPAPEAEGAPSVFLFPPKPKDTLMISRTPEVTCVVVDVSHEDPEVKFNWYVDGVEVHNAKTKPREEQYNSTYRVVSVLTVLHQDWLNGKEYKCKVSNKALPAPIEKTISKAKGQPREPQVYTLPPSREEMTKNQVSLTCLVKGFYPSDIAVEWESNGQPENNYKTTPPVLDSDGSFFLYSKLTVDKSRWQQGNVFSCSVMHEALHNHYTQKSLSLSPG		
2.77	1079	12177	4173	22538	5	E35D/D46V/M47L/V68M/L85Q/E88D delta (protein) VIHVTKEVKEVATLSCGHNVSVEELAQTRIYWQKDKKMVLTMMSGVLNIWPEYKNRTIFDITNNLSIMILALRPSDEGTYECVVQKYDKDAFKREHLAEVTLSVKTHTCPPCPAPEAEGAPSVFLFPPKPKDTLMISRTPEVTCVVVDVSHEDPEVKFNWYVDGVEVHNAKTKPREEQYNSTYRVVSVLTVLHQDWLNGKEYKCKVSNKALPAPIEKTISKAKGQPREPQVYTLPPSREEMTKNQVSLTCLVKGFYPSDIAVEWESNGQPENNYKTTPPVLDSDGSFFLYSKLTVDKSRWQQGNVFSCSVMHEALHNHYTQKSLSLSPG		
5.25	2046	32048	197	25461	129	E35D/D46V/M47L/V68M/L85Q/E88D (EAAAK)3 (protein, UniProt P33681 35-288, looked up, variant E35D D46V M47L V68M L85Q E88D, (EAAAK)3 linker) T-lymphocyte activation …: VIHVTKEVKEVATLSCGHNVSVEELAQTRIYWQKDKKMVLTMMSGVLNIWPEYKNRTIFDITNNLSIMILALRPSDEGTYECVVQKYDKDAFKREHLAEVTLSVKADFPTPSISDFEIPTSNIRRIICSTSGGFPEPHLSWLENGEELNAINTTVSQDPETELYAVSSKLDFNMTTNHSFMCLIKYGHLRVNQTFNWNTTKQEHFPDNLLPSWAITLISVNGIFVICCLTYCFAPRCRERRRNERLRRESVRPV		CTLA4 Fold change to WT CD80 (huCTLA4; [10]): 26.8; CD28 Fold change to WT CD80 (CD28 [2]; [10]): 3.5; PD-L1 Fold change to WT CD80 (huPD-L1; [10]): 546.4
4.38	1707	27516	2634	22862	9	E35D/M47V/N48K/V68M/K89N EAAAK (protein, UniProt P33681 35-288, looked up, variant E35D M47V N48K V68M K89N, EAAAK linker) T-lymphocyte activation …: VIHVTKEVKEVATLSCGHNVSVEELAQTRIYWQKDKKMVLTMMSGDVKIWPEYKNRTIFDITNNLSIMILALRPSDEGTYECVVLKYENDAFKREHLAEVTLSVKADFPTPSISDFEIPTSNIRRIICSTSGGFPEPHLSWLENGEELNAINTTVSQDPETELYAVSSKLDFNMTTNHSFMCLIKYGHLRVNQTFNWNTTKQEHFPDNLLPSWAITLISVNGIFVICCLTYCFAPRCRERRRNERLRRESVRPV		CTLA4 Fold change to WT CD80 (huCTLA4; [10]): 23.0; CD28 Fold change to WT CD80 (CD28 [2]; [10]): 47.1; PD-L1 Fold change to WT CD80 (huPD-L1; [10]): 490.6

Further lines, the molecule ahead of its results:

Molecule	Fold Increase over WT CD80-IgV-Fe (CD28 [1]; Table E26, linker variants)	Relative Luciferase Units (RLU), CD80 Conc 5.0 nM (CD28 [1]; [3]) [RLU]	CTLA4 MFI at 33.3 nM (huCTLA4; [4])	CD28 MFI at 33.3 nM (CD28 [2]; [5])	PD-L1 MFI at 33.3 nM (huPD-L1; [4])	Ratio of PDL1:CD28 (huPD-L1; Table E25, linker variants)	Anti-CD3 IFN-gamma Coimmobilization Assay (human pan T cells) [pg/mL]	further results
H18L, R29D, Y31L, Q33H, K36G, M38I, T41A, M43R, M47T, E81V, L85R, K89N, A91T, F92P, K93V, R94L, E99D, T130A (protein) VIHVTKEVKEVATLSCGLNVSVEELAQTDILWHKEGKIVLAMRSGDTNIWPEYKNRTIFDITNNLSIVILALRPSDEGTYVCVVRKYENDTPVLEHLADVTLSVKADFPTPSISDFEIPTSNIRRIICSASGGFPEPHLSWLENGEELNAINTTVSQDPETELYAVSSKLDFNMTTNHSFMCLIKYGHLRVNQTFNWNTTKQEHFPDN							174	
H18L, R29D, Y31L, Q33H, K36G, M38I, T41A, M43R, M47T, L70Q, E81V, L85R, K89N, A91T, F92P, K93V, R94L, I118V, T120S, T130A, K169E (protein) VIHVTKEVKEVATLSCGLNVSVEELAQTDILWHKEGKIVLAMRSGDTNIWPEYKNRTIFDITNNLSIVIQALRPSDEGTYVCVVRKYENDTPVLEHLAEVTLSVKADFPTPSISDFEVPSSNIRRIICSASGGFPEPHLSWLENGEELNAINTTVSQDPETELYAVSSELDFNMTTNHSFMCLIKYGHLRVNQTFNWNTTKQEHFPDN							232	
R29D, Y31L, Q33H, K36G, M38I, T41A, M43R, M47T, L70Q, E81V, L85R, K89N, A91T, F92P, K93I, R94L, L97R, T130A (protein) VIHVTKEVKEVATLSCGHNVSVEELAQTDILWHKEGKIVLAMRSGDTNIWPEYKNRTIFDITNNLSIVIQALRPSDEGTYVCVVRKYENDTPILEHRAEVTLSVKADFPTPSISDFEIPTSNIRRIICSASGGFPEPHLSWLENGEELNAINTTVSQDPETELYAVSSKLDFNMTTNHSFMCLIKYGHLRVNQTFNWNTTKQEHFPDN							202	
H18V/A26Q/E35D/M47V/V68L/A71G/D90G (protein, UniProt P33681 35-288, looked up, variant H18V A26Q E35D M47V V68L A71G D90G) T-lymphocyte activation …: VIHVTKEVKEVATLSCGVNVSVEELQQTRIYWQKDKKMVLTMMSGDVNIWPEYKNRTIFDITNNLSILILGLRPSDEGTYECVVLKYEKGAFKREHLAEVTLSVKADFPTPSISDFEIPTSNIRRIICSTSGGFPEPHLSWLENGEELNAINTTVSQDPETELYAVSSKLDFNMTTNHSFMCLIKYGHLRVNQTFNWNTTKQEHFPDNLLPSWAITLISVNGIFVICCLTYCFAPRCRERRRNERLRRESVRPV								Fold Increase over WT CD80-IgV-Fe (CD28 [1]; [6]): 4.6; Relative Luciferase Units (RLU), CD80 Conc 5.0 nM (CD28 [1]; [6]): 795 RLU; CTLA4 MFI at 33.3 nM (huCTLA4; [7]): 17654; CTLA4 Fold change to WT CD80 (huCTLA4; [8]): 12.8; CD28 MFI at 33.3 nM (CD28 [2]; [9]): 3126; CD28 Fold change to WT CD80 (CD28 [2]; [8]): 30.6; PD-L1 MFI at 33.3 nM (huPD-L1; [7]): 33597; PD-L1 Fold change to WT CD80 (huPD-L1; [8]): 203.6; Ratio of PDL1:CD28 (huPD-L1; Table E23): 10.7
H18F/A26N/E35D/M47V/V68M/A71G/D90K (protein, UniProt P33681 35-288, looked up, variant H18F A26N E35D M47V V68M A71G D90K) T-lymphocyte activation …: VIHVTKEVKEVATLSCGFNVSVEELNQTRIYWQKDKKMVLTMMSGDVNIWPEYKNRTIFDITNNLSIMILGLRPSDEGTYECVVLKYEKKAFKREHLAEVTLSVKADFPTPSISDFEIPTSNIRRIICSTSGGFPEPHLSWLENGEELNAINTTVSQDPETELYAVSSKLDFNMTTNHSFMCLIKYGHLRVNQTFNWNTTKQEHFPDNLLPSWAITLISVNGIFVICCLTYCFAPRCRERRRNERLRRESVRPV								Fold Increase over WT CD80-IgV-Fe (CD28 [1]; [6]): 5.4; Relative Luciferase Units (RLU), CD80 Conc 5.0 nM (CD28 [1]; [6]): 919 RLU; CTLA4 MFI at 33.3 nM (huCTLA4; [7]): 15206; CTLA4 Fold change to WT CD80 (huCTLA4; [8]): 11.0; CD28 MFI at 33.3 nM (CD28 [2]; [9]): 3170; CD28 Fold change to WT CD80 (CD28 [2]; [8]): 31.1; PD-L1 MFI at 33.3 nM (huPD-L1; [7]): 22395; PD-L1 Fold change to WT CD80 (huPD-L1; [8]): 135.7; Ratio of PDL1:CD28 (huPD-L1; Table E23): 7.1
